Literature values in PMC2949527.

Target: RFX5(25-90)2·RFXAP(214-272) complex 25-90 + 214-272 (Homo sapiens) (UniProt P48382)
Sequence (P48382 2-616, chain 1 of 2): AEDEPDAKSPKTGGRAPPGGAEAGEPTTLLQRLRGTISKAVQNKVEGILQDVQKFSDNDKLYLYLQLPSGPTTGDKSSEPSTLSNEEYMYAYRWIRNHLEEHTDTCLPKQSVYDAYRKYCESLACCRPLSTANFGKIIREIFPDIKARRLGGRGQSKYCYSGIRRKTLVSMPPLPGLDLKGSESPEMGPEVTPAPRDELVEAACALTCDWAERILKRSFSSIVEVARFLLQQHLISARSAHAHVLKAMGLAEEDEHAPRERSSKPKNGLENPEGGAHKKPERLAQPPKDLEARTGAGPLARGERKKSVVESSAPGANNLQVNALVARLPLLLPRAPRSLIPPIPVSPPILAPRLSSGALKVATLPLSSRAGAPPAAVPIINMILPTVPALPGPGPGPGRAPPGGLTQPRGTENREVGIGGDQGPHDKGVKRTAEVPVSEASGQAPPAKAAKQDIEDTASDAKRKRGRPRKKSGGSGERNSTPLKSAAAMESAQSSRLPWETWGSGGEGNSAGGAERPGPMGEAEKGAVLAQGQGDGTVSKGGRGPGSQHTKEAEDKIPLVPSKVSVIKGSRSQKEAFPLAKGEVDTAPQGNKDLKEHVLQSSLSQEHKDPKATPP
Sequence (O00287 whole entry, chain 2 of 2, further chain): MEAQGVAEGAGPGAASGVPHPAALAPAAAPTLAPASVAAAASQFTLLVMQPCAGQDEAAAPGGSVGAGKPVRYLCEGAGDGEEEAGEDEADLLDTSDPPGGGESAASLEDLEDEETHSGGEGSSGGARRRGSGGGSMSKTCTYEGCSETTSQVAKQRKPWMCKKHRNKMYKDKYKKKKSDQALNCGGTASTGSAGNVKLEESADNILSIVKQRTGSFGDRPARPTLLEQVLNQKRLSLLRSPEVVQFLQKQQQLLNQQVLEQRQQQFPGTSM

Chain of RFXB (O14593 whole entry): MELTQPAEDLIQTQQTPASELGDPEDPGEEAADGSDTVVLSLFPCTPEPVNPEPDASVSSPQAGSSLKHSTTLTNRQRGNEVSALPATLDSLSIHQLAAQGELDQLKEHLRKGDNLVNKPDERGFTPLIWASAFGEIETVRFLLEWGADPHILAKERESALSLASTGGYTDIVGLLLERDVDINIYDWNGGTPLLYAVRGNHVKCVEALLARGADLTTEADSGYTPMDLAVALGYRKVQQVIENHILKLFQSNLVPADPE

## RFXB (from UniProt O14593)
  Kd: 76 nM
